Laboratory results from patent US20240132550A1 (GlaxoSmithKline, published 2024).
Changes are numbered by the printed parent chain. Names and notes keep the numbering of the source.

Tests used:
[1] = target: T1, factor H, Human (Merck Millipore) (human, UniProt P08603 19-1231); experiment: SPR, full-length human factor H immobilised on CM-5 chip, fHbp analyte at 250 nM
T1 construct: mature; also called full-length factor H protein; full length fH protein

[2] = target: T2, factor H (hfH) domain 6-7 (human, UniProt P08603 321-443); experiment: SPR, fH 6-7 immobilised on CM-5 chip, fHbp as analyte
T2 construct: domain: factor H 6-7 domain; also called factor H 6-7 domain; factor H domain 6-7
T2 sequence: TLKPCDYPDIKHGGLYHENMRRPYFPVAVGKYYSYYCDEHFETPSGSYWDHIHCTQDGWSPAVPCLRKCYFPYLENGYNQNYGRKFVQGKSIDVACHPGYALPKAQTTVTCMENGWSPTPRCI

[3] = target: T1, factor H, Human (Merck Millipore); experiment: SPR, full-length human factor H immobilised on CM-5 chip, fHbp as analyte

T1 sequence (P08603 19-1231): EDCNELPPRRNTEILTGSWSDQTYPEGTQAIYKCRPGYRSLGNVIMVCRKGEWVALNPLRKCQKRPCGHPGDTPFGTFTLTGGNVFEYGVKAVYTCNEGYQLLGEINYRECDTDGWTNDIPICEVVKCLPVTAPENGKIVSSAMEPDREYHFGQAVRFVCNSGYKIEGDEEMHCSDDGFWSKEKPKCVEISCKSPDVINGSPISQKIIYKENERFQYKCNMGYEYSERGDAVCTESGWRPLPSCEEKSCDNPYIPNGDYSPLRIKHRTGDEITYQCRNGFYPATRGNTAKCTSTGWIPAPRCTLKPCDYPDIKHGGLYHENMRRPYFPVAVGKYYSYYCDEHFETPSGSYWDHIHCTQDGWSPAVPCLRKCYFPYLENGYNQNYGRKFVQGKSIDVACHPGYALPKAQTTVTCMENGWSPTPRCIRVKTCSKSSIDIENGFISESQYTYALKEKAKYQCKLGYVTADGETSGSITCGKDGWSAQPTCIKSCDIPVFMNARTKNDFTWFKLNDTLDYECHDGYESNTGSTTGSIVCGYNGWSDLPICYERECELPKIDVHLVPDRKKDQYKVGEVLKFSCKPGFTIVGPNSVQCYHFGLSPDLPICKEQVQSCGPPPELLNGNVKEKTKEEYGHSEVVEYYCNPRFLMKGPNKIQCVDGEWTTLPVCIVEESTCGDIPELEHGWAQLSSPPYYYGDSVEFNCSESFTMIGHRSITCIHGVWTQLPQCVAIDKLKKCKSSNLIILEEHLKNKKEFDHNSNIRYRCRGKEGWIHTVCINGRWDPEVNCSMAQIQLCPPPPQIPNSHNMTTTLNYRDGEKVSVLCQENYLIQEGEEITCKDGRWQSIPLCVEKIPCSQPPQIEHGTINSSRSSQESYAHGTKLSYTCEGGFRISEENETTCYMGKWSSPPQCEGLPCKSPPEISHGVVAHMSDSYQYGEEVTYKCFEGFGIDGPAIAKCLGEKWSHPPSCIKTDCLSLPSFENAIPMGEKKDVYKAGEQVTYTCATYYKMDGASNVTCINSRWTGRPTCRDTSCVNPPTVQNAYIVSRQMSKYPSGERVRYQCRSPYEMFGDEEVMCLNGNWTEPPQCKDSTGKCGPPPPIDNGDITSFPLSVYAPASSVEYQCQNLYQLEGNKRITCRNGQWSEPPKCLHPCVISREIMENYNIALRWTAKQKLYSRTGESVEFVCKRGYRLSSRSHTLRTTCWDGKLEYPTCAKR

B1: fHbp v1.15 (other)
chain: VAADIGAGLADALTAPLDHKDKGLKSLTLEDSISQNGTLTLSAQGAERTFKAGDKDNSLNTGKLKNDKISRFDFIRQIEVDGQLITLESGEFQVYKQSHSALTALQTEQVQDSEHSGKMVAKRQFRIGDIVGEHTSFGKLPKDVMATYRGTAFGSDDAGGKLTYTIDFAAKQGHGKIEHLKSPELNVDLAAADIKPDEKHHAVISGSVLYNQAEKGSYSLGIFGGQAQEVAGSAEVETANGIRHIGLAAKQLEHHHHHH
[1]
  binding result: binds

B2: fHbp v1.15 E214A (other)
chain: B1 chain with E214A
notes: also called v1.15 ΔG (E214A) + His tag
[1]
  binding result: binds

B3: fHbp v1.15 E214A/S219R (other)
chain: VAADIGAGLADALTAPLDHKDKGLKSLTLEDSISQNGTLTLSAQGAERTFKAGDKDNSLNTGKLKNDKISRFDFIRQIEVDGQLITLESGEFQVYKQSHSALTALQTEQVQDSEHSGKMVAKRQFRIGDIVGEHTSFGKLPKDVMATYRGTAFGSDDAGGKLTYTIDFAAKQGHGKIEHLKSPELNVDLAAADIKPDEKHHAVISGSVLYNQAAKGSYRLGIFGGQAQEVAGSAEVETANGIRHIGLAAKQHHHHHH
notes: also called v1.15 ΔG (E214A/S219R)
[2]
  binding result: no binding (tested: 250 nM)
[1]
  binding result: binds

B4: fHbp v1.15 E214A/E235A (other)
chain: B3 chain with R219S, E235A
notes: also called v1.15 ΔG (E214A/E235A)
[2]
  binding result: no binding (tested: 250 nM)
[3]
  binding result: no binding (tested: 250 nM)
